Experimental data from US20070286858A1 (Pfizer, published 2007).

Columns and labels:
[1] = target: T1, murine RAGE-strep tag fusion protein (mouse, UniProt Q62151 23-343); assay: ELISA, mRAGE-strep
T1 construct: also called mRAGE-strep; mRAGE-SA
T1 chain: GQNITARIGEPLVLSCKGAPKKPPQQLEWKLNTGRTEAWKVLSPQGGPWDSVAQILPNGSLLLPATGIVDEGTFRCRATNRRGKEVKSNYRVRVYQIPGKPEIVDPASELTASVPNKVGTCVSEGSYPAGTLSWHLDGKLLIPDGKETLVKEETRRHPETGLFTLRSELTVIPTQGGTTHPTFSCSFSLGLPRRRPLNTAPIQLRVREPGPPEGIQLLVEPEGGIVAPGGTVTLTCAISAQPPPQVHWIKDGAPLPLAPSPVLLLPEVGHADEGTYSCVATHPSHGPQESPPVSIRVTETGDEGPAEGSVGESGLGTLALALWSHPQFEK

[2] = target: T2, human RAGE V-region-Fc fusion protein (human, UniProt Q15109 23-118); assay: direct binding ELISA, coated hRAGE V-region-Fc
T2 construct: also called hRAGE V-domain-Fc; hRAGE-V-Fc (CM); not shown: Fc domain of human IgG
Method: Antibodies were purified from hybridoma supernatants using standard procedures. Purified antibodies were evaluated for binding to soluble forms of RAGE with the use of ELISA. […] After washing and blocking with PBS containing 1% BSA and 0.05% Tween-20, 100 ul of sample (samples were in several forms: diluted immune serum, hybridoma supernatants, or purified antibodies, as indicated) was added and incubated for 1 hour at room temperature. The plates were washed with PBS, pH 7.2 and bound anti-RAGE antibodies were detected with the use of peroxidase-conjugated goat, anti-mouse IgG (H+L) (IgG) (Pierce, Rockford, Ill.) followed by incubation with the substrate TMB (BioFX Laboratories Owings Mills, Md. Laboratories). Absorbance values were determined at 450 nm in a spectrophotometer. The concentrations of monoclonal antibodies were determined with the use of peroxidase-labeled goat, anti-mouse IgG (Fcγ) (Pierce Rockford, Ill.) and a standard curve was generated by a purified, isotype-matched mouse IgG.

[3] = target: T3, human RAGE-Fc fusion protein (human, UniProt Q15109 23-344); assay: BIACORE direct binding, hRAGE-Fc immobilized
T3 construct: also called hRAGE-Fc; huRAGE-Fc; not shown: Fc domain of human IgG
Method: The binding of selected murine and rat anti-RAGE antibodies to human and murine RAGE and to the V domains of human and murine RAGE was analyzed by BIACORE® direct binding assay. […] Solution of the anti-RAGE antibodies at two concentrations, 50 and 100 nm, were run over the immobilized RAGE-Fc proteins in duplicate. BIACORE™ technology utilizes changes in the refractive index at the surface layer upon binding of the anti-RAGE antibodies to the immobilized RAGE antigen. Binding is detected by surface plasmon resonance (SPR) of laser light refracting from the surface.
The kinetic rate constants (kₐ and kd) and association and dissociation constants (Kₐ and Kd) for the binding of murine and rat anti-RAGE antibodies to human and murine RAGE were determined by BIACORE™ direct binding assay. Analysis of the signal kinetics data for on-rate and off-rate allows the discrimination between non-specific and specific interactions.

human RAGE, full length = target: T4, human RAGE, full length (human, UniProt Q15109 23-404); assay: cell-based ELISA, 293 cells transfected with human RAGE
T4 construct: Expressed on 293 or CHO cells, or endogenous in human lung sections; also called hRAGE; cell-surface hRAGE
Method: (§1) Human embryonic kidney 293 cells (American Tissue Type Culture, Manassas, Va.) cells were plated at 5×10⁶ cells per 10 cm² tissue culture plate and cultured overnight at 37° C. The next day cells were transfected with RAGE expression plasmids (pAdori1-3 vector encoding mouse, human, baboon, cynomologus monkey or rabbit RAGE) using LF2000 reagent (Invitrogen, Carlsbad Calif.) at a 4:1 ratio of reagent to plasmid DNA using the manufacturers protocol. Cells were harvested 48 hrs post-transfection using trypsin, washed once with phosphate buffered saline (PBS), then suspended in growth media without serum at a concentration of 2×10⁶ cells/ml.
(§2) Primary antibodies at 1 μg/ml were serially diluted at 1:2 or 1:3 in PBS containing 1% bovine serum albumin (BSA) in a 96-well plate. RAGE-transfected 293 cells or control parental 293 cells (50 μl) at 2×10⁶ cells/ml in serum-free growth medium were added to U-bottom 96 well plate for a final concentration of 1×10⁵ cells/well. The cells were centrifuged at 1600 rpm for 2 minutes. The supernatants were gently discarded by hand with a one-time swing and the plate was patted gently to loose the cell pellet. […] The cells were centrifuged and the supernatants are transferred to a fresh plate and read at 450 nm (Soft MAX pro 4.0, Molecular Devices Corporation, Sunnyvale, Calif.).

baboon RAGE = target: T5, baboon RAGE (baboon (Papio cyanocephalus), UniProt Q15109 23-404 (human entry)); assay: cell-based ELISA, 293 cells transfected with baboon RAGE
T5 construct: On transfected 293 cells or endogenous in baboon lung sections; also called 293-baboon RAGE; RAGE in baboon lung
T5 chain: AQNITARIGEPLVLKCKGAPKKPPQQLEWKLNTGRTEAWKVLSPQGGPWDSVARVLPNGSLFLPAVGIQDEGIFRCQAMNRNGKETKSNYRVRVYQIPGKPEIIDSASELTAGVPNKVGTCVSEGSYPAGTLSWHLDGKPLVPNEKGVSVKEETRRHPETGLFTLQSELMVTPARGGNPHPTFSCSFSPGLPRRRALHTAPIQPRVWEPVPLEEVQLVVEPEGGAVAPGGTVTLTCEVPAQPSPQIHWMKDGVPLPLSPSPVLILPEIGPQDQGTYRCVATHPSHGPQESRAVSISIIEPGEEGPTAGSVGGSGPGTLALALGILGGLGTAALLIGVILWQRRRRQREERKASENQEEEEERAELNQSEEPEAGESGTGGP
Method: as §1, §2

[4] = target: T3, human RAGE-Fc fusion protein; assay: ligand competition ELISA, panel Blocks hRAGE-Fc interaction with A-beta; blocked ligand amyloid beta 1-42 peptide

B1: XT-M4 (antibody, rat IgG2b, V domains shown)
VH: EVQLVESGGGLVQPGRSLKLSCVVSGFTFNNYWMTWIRQTPGKGLEWVASINNSGDNTYYPDSVKDRFTISRDNAKSTLYLQMNSLRSEDTATYYCTRGGDITTGFDYWGQGVMVTVSS
VL: DIQMTQSPSSMSVSLGDTITITCRASQDVGIYVNWFQQKPGKSPRRMIYRATNLADGVPSRFSGSRSGSIYSLTISSLESEDVADYHCLEFDEHPLTFGSGTKVEIK
notes: also called 1mRAGEP3/10; rat XT-M4
With B1 the binding result [1] was “binds”, the EC50 [2] was 0.1 nM and the Ka [3] was 1e+09 M⁻¹. It also gave a Kd [3] of 0.995 nM, a koff [3] of 0.00116 s⁻¹ and a kon [3] of 1.16e+06 M⁻¹ s⁻¹. The EC50 (human RAGE, full length) was ~0.84 nM, the EC50 (baboon RAGE) was ~1.33 nM and the “IC50 (read off the curve)” value [4] was ~0.2 µg/mL.
